From IntAct's records for PubMed 26894577

Molecular target: 2aba_human PPP2R2A (UniProt P63151)
UniProt P63151, sequence (P63151 whole entry): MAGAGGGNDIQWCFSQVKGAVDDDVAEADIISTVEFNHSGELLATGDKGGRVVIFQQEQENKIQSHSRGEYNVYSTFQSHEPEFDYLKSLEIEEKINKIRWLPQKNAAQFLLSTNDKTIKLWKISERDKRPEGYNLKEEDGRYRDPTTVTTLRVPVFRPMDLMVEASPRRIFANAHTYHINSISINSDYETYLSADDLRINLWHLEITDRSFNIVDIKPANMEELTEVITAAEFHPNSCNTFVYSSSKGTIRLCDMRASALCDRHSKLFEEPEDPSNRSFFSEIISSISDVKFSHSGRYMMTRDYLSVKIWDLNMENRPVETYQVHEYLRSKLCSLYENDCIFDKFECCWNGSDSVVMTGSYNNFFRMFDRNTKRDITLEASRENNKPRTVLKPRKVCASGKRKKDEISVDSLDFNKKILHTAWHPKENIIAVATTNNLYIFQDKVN

For “Leucine-rich repeat serine/threonine-protein kinase 2 (Homo sapiens), Q5S007 R1441C”, the “effect of a mutation on the interaction” value was “with no effect”.
